# In patent publication US20230012273A1 (Boehringer Ingelheim, published 2023):
# T1: cynomolgus SIRPγ (XP_005568591) extracellular domain + His-tag (cynomolgus monkey, UniProt Q9P1W8 29-359 (human entry))
# T1 construct: SPR analyte; also called Cyno SIRPγ XP_005568591; cynoSIRPγ; not shown: His-tag
# T1 chain: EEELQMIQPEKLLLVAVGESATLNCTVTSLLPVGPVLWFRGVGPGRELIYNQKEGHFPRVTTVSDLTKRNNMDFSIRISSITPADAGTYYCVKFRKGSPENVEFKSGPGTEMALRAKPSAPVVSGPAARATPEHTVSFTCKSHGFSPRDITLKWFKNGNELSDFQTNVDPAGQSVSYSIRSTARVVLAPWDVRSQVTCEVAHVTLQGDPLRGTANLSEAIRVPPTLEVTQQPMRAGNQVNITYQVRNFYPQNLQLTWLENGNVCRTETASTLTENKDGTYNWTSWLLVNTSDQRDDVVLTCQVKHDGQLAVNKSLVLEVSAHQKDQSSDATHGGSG
# T2: cynomolgus SIRPβ1 (XP_005568598) extracellular domain + His-tag (cynomolgus monkey)
# T2 construct: SPR analyte; also called Cyno SIRPβ1 XP_005568598; cynoSIRPβ1; not shown: His-tag
# T2 chain: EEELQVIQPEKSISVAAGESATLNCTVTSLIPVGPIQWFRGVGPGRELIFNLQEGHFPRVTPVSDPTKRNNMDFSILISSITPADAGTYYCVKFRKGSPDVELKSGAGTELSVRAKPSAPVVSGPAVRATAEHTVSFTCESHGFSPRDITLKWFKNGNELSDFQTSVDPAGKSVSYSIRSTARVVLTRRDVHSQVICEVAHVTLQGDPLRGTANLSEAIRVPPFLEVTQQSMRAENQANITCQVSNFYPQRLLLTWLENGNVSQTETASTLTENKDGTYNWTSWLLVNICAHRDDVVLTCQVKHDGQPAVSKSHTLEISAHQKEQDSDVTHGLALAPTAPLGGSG
# T3: full-length cyno SIRPα (XP_015313155) on CHO-K1 cells, clone P3HD10 (cynomolgus monkey)
# T3 chain: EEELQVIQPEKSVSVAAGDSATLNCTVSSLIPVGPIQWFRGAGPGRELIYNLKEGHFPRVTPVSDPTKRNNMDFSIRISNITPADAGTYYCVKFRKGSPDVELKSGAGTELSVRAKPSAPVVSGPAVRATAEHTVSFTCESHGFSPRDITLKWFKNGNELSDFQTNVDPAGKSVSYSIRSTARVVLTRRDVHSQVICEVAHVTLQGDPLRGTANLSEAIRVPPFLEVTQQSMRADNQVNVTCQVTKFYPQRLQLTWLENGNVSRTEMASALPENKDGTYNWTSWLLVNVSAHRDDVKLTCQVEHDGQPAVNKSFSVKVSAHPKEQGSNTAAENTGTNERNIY
# T4: full-length cyno SIRPα (NP_001271679) on CHO-K1 cells, clone HC6 (cynomolgus monkey, UniProt A0A2K5VYQ9)
# T4 construct: whole, on cells
# T4 sequence: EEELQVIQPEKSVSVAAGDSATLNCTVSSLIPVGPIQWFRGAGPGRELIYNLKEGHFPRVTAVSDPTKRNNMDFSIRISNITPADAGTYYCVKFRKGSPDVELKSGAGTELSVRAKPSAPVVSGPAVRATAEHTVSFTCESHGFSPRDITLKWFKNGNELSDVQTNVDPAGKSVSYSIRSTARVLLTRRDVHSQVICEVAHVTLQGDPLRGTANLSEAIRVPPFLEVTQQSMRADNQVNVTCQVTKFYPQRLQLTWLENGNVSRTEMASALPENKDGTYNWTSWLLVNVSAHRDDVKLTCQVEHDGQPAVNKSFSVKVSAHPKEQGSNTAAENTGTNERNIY
# Assays:
# [1] = target: T1, cynomolgus SIRPγ (XP_005568591) …; test: SPR
# Method in brief: (§1)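 SPR; Ab capture surface, ethanolamine-deactivated (1M, 420 s, 10 μl/min). Analyte: SIRP ECD+His, 2-fold dilution series in 1×HBS-EP+. Inject 300 s @ 30 μl/min; dissoc. 600 s.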
# [2] = target: T2, cynomolgus SIRPβ1 (XP_005568598) …; test: SPR
# Method in brief: as §1
# [3] = target: T5, full-length human SIRPγ (NP_061026.2) on cells (human, UniProt Q9P1W8 29-387); test: flow cytometry, Expi-CHO cells expressing full-length wild-type human SIRPγ
# T5 construct: also called CHO-hSIRPγ; γ WT
# T5 sequence (Q9P1W8 29-387): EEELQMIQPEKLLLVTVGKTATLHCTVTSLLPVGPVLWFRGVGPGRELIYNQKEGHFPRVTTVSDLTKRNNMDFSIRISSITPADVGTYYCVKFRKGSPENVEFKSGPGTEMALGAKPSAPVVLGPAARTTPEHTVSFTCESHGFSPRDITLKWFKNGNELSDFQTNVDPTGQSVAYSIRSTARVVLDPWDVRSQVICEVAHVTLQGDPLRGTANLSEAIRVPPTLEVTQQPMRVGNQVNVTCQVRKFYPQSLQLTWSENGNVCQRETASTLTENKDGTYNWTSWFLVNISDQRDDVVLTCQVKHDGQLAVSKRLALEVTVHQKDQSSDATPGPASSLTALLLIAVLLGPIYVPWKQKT
# Description: […] These cells are blocked with donkey IgG and incubated on ice with increasing concentrations of antibodies for 60 minutes, washed and stained with AF647-conjugated donkey F(ab′)₂ anti-human IgG antibodies. Stained cells are washed, fixed, and analyzed by flow cytometry. Median fluorescent intensity is determined and used as a measure of antibody binding.
# [4] = target: T3, full-length cyno SIRPα (XP_015313155) …; test: flow cytometry, CHO-K1 cells
# Description: (§2) Antibody binding to cells expressing cynomolgus (cyno) SIRPα was evaluated by flow cytometry. CHO-K1 cells expressing full-length cyno SIRPα; derived from protein sequence accession numbers (A) EGM-02252; (B) XP_015313155; or (C) NP_001271679, are blocked with donkey IgG and incubated on ice with increasing concentrations of antibodies for 60 minutes, washed and stained with AF647-conjugated donkey F(ab′)₂ anti-human IgG secondary reagent. Cells are washed, fixed, and analyzed by flow cytometry. Median fluorescent intensity is determined and used as a measure of antibody binding.
# [5] = target: T4, full-length cyno SIRPα (NP_001271679) …; test: flow cytometry, CHO-K1 cells
# Description: as §2
# [6] = target: T6, human SIRPβ1 extracellular domain + His-tag (NP_006056.2) (human, UniProt O00241 30-371); test: SPR, Ab captured, ECD-His analyte
# T6 construct: also called hSIRPβ1; HuSIRPβ1
# T6 sequence (O00241 other isoform, or with tags, fused parts or gaps): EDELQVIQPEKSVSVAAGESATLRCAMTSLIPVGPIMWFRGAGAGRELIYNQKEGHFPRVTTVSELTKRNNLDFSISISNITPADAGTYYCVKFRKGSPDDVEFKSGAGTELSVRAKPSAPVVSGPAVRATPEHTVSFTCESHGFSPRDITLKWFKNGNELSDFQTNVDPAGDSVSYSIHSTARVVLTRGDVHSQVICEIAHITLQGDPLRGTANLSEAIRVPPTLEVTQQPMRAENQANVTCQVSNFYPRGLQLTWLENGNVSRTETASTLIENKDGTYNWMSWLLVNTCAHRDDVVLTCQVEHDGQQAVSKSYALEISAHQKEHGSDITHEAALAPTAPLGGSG
# Method in brief: as §1
binding result [1],binding result [2],binding result [3],fold weaker EC50 than on clone H3A9 [4] [fold],fold weaker EC50 than on clone H3A9 [5] [fold],Kd [6] [nM],Binder
no binding (tested: 1000 nM),no binding (tested: 1000 nM),,,,,"Antibody E (antibody, human IgG1, kappa, L234A L235A) heavy: not shown light: DIVMTQSPLSLPVTPGEPASISCKSSQSLLYSNGYNYLDWYLQRPGQSPQLLIYLGSNRASGVPDRFSGSGSGTDFTLKISRVEAEDVGVFYCMQALQTPLTFGGGTKVEIKRTVAAPSVFIFPPSDEQLKSGTASVVCLLNNFYPREAKVQWKVDNALQSGNSQESVTEQDSKDSTYSLSSTLTLSKADYEKHKVYACEVTHQGLSSPVTKSFNRGEC"
no binding (tested: 1000 nM),no binding (tested: 1000 nM),no binding (tested: about 67 nM),,,,"Antibody E22 (antibody, human IgG1, kappa, L234A L235A, V domains shown) VH: QVQLQESGPGLVKPSETLSLTCTVSGGSIRDYYWSWIRQPPGKGLEWIGFIYYNGRTFYQSSLKSRVTISLDTSKNQFSLKMTSVTAADTAVYYCARVRAYSGIGLDGTDVWGQGTTVTVSS VL: DIVMTQSPLSLPVTPGEPASISCRSSQSLLYSTGYTYLDWYLQRPGQSPQLLIYGGSSRASGVPDRFSGSGSGTDFTLKISRVEAEDVGVFYCGQALQTPLTFGQGTKVEIKR"
,,no binding (tested: about 67 nM),,,,"Antibody A10 (antibody, human IgG1, kappa, L234A L235A) heavy: not shown light: DIQMTQSPSSLSASVGDRVTITCRASQDINNYLAWFQQKPGKAPKSLIYTASSLHSGVPSKFSGSGSGTDFTLTISSLQPEDFATYYCQQYVSYPYTFGQGTKLEIKRTVAAPSVFIFPPSDEQLKSGTASVVCLLNNFYPREAKVQWKVDNALQSGNSQESVTEQDSKDSTYSLSSTLTLSKADYEKHKVYACEVTHQGLSSPVTKSFNRGEC [Antibody A10, listing 1 of 2 here]"
,,,≤ 5,≤ 5,64.8,"Antibody A (antibody, human IgG1, kappa, L234A L235A) heavy: not shown light: DIQMTQSPSSLSASVGDRVTITCRASQDINNYLAWFQQKPGKAPKSLIYTASSLHSGVPSKFSGSGSGTDFTLTISSLQPEDFATYYCQQYVSYPYTFGQGTKLEIKRTVAAPSVFIFPPSDEQLKSGTASVVCLLNNFYPREAKVQWKVDNALQSGNSQESVTEQDSKDSTYSLSSTLTLSKADYEKHKVYACEVTHQGLSSPVTKSFNRGEC"
,,,≤ 5,≤ 5,69,"Antibody A10 (antibody, human IgG1, kappa, L234A L235A) heavy: not shown light: DIQMTQSPSSLSASVGDRVTITCRASQDINNYLAWFQQKPGKAPKSLIYTASSLHSGVPSKFSGSGSGTDFTLTISSLQPEDFATYYCQQYVSYPYTFGQGTKLEIKRTVAAPSVFIFPPSDEQLKSGTASVVCLLNNFYPREAKVQWKVDNALQSGNSQESVTEQDSKDSTYSLSSTLTLSKADYEKHKVYACEVTHQGLSSPVTKSFNRGEC [Antibody A10, listing 2 of 2 here]"
